B1: B8-dIgA1 (antibody, V domains shown)
VH: EVQLVQSGAEVKKPGSSVKVSCKASGGTFSNYGISWVRQAPGQGLEWMGRILPTFGTANSAQKFQGRVTITADESTGTAYMELRSLRSEDTAVYYCAKEGLAFLGYGMDVWGQGTTVTVSS
VL: EIVLTQSPGTLSLSPGERATLSCRASQSVSSYLAWYQQKPGQAPRLLIYDASNRATGIPARFIGSGSGTDFTLTISSLEPEDFAVYFCQQRSNWPLTFGGGTKVEIK
B2: B8-dIgA2 (antibody, V domains shown)
VH: B1 VH
VL: B1 VL
B3: B8-mIgA1 (antibody, V domains shown)
VH: B1 VH
VL: B1 VL
B4: B8-mIgA2 (antibody, V domains shown)
VH: B1 VH
VL: B1 VL

These binders were tested against recombinant SARS-CoV-2 RBD (Sino Biological) (SARS-CoV-2, UniProt P0DTC2) (assay: cell-based or functional assay).

Binder	IC50, neutralisation of SARS-CoV-2 pseudovirus in HEK293T-ACE2 cells	IC90, neutralisation of SARS-CoV-2 pseudovirus in HEK293T-ACE2 cells
B1	0.0048 µg/mL	0.033 µg/mL
B2	0.012 µg/mL	0.021 µg/mL
B3	0.012 µg/mL	0.052 µg/mL
B4	0.0057 µg/mL	0.014 µg/mL

Reference: PMC10444022, “SARS-CoV-2 hijacks neutralizing dimeric IgA for nasal infection and injury in Syrian hamsters^1” (Emerging Microbes & Infections, 2023)
